From US20040146873
Substitutions are numbered along the chain they refer to.

Assays:
[1] = target: mPER2 fragment, amino acids 472 to 804, wild-type, 6-myc-tagged (UniProt O54943)
[2] = target: mPER2 fragment, amino acids 472 to 804, serine 659 substituted by glycine, 6-myc-tagged (UniProt O54943)
[3] = system: T1, hPER2 fragment, amino acids 474 to 815, wild-type (662S), 6-myc-tagged
T1 sequence: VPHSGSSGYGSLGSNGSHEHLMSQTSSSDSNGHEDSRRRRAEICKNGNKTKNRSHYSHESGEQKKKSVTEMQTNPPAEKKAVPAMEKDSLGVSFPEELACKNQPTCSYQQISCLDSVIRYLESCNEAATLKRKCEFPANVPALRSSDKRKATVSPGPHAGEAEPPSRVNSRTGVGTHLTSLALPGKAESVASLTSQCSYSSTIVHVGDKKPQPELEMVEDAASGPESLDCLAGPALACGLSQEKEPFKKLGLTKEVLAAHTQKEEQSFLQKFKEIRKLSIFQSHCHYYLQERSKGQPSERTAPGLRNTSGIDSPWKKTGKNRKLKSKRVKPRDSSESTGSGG

[4] = system: hPER2 peptides in the region of serine 662 with a negative charge at position 662 (covalently linked phosphate or aspartate)
[5] = system: T2, hPER2 fragment, amino acids 474 to 815, S662E, 6-myc-tagged
T2 sequence: T1 sequence with S189E

[6] = system: T3, hPER2 fragment, amino acids 474 to 815, mutant S662G (662G), 6-myc-tagged
T3 sequence: T1 sequence with S189G

[7] = system: T4, hPER2 fragment, amino acids 474 to 815, S662D, 6-myc-tagged
T4 sequence: T1 sequence with S189D

Sequence of casein kinase Iε (CKIε) (P49674 whole entry): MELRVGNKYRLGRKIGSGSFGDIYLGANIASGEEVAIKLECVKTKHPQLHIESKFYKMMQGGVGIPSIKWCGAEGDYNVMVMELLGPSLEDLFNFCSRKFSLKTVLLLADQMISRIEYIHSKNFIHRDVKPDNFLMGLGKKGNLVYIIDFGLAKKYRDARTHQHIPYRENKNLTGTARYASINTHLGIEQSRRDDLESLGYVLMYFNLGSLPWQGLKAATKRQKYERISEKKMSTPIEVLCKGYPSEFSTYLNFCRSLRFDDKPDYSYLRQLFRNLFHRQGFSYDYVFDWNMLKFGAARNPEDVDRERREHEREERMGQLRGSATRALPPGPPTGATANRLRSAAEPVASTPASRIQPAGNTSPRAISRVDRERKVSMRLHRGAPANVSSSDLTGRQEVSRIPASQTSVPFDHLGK

For casein kinase Iε (CKIε), the “electrophoretic mobility shift (phosphorylation) at low CKIε” value [1] was “A similar result was obtained with wild-type and mutant mPER2 fragments (data not shown)”, the “electrophoretic mobility shift (phosphorylation) at low CKIε” value [2] was “A similar result was obtained with wild-type and mutant mPER2 fragments (data not shown)” and the “electrophoretic mobility shift (phosphorylation) at higher CKIε, 6.5 ng/µl” value [3] was “mobility shifts were observed for both the wild type and mutant hPER2 fragments”. The “electrophoretic mobility shift (phosphorylation) at low CKIε, 0.25 ng/µl” value [3] was “an electrophoretic mobility shift was observed with the wild-type (662S) but not with the mutant (662G) fragment”, the “phosphorylation stoichiometry (biochemical phosphorylation assay and mass spectrometry)” value [4] was “phosphorylation of an additional four moles per mole of substrate when there is a negative charge at serine 662” and the “phosphorylation (mobility shift)” value [5] was “Phosphorylation was restored in both the S662D and S662E mutants, with a higher phosphorylation rate observed with the S662D mutant”. For the same substance, the “electrophoretic mobility shift (phosphorylation) at higher CKIε, 6.5 ng/µl” value [6] was “mobility shifts were observed for both the wild type and mutant hPER2 fragments”, the “electrophoretic mobility shift (phosphorylation) at low CKIε, 0.25 ng/µl” value [6] was “an electrophoretic mobility shift was observed with the wild-type (662S) but not with the mutant (662G) fragment” and the “phosphorylation (mobility shift)” value [7] was “Phosphorylation was restored in both the S662D and S662E mutants, with a higher phosphorylation rate observed with the S662D mutant”.
